± gives the uncertainty stated by the source.
Test: self-splicing fitness, log relative to wild type (ln ratio); higher = more splicing; Tetrahymena group I intron in knt gene, E. coli kanamycin selection, DiMSum; sequences stand for … in CUCUCU…GGAGGGAAAAGUUAUCAGGCAUGCACCUGGUAGCUAGUCUUUAAACCAAUAGAUUGCAUCGGUUUAAAAGGCAAGACCGUCAAAUUGCGGGAAAGGGGUCAACAGCCGUUCAGUACCAAGUCUCAGGGGAAACUUUGAGAUGGCCUUGCAAAGGGUAUGGUAAUAAGCUGACGGACAUGGUCCUAACCACGCAGCCAAGUCCUAAGUCAACAGAUCUUCUGUUGAUAUGGAUGCAGUUCACAGACUAAAUGUCGGUCGGGGAAGAUGUAUUCUUCUCAUAAGAUAUAGUCGGACCUCUCCUUAAUGGGAGCUAGCGGAUGAAGUGAUGCAACACUGGAGCCGCUGGGAACUAAUUUGUAUGCGAAAGUAUAUUGAUUAGUUUUGGAGUACUCGUGGUCG
Method in brief: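 Fitness was computed with DiMSum as the error-weighted combination of replicate fold changes, kanamycin versus none, each normalised to wild type. The library randomised all eight intron nucleotides of the P1ex region, with the intron placed in the knt kanamycin-resistance gene on pET-22b(+) in E. coli BL21(DE3). Six replicate transformations were grown overnight at 37°C or 30°C on LB agar with or without 25 μg/mL kanamycin, plus 100 μg/mL carbenicillin, 50 μM IPTG and 0.2% rhamnose. Pooled colonies were amplicon-sequenced on an Illumina HiSeq 2500.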

| Sequence | self-splicing fitness (ln) (30 °C) | self-splicing fitness (ln) (37 °C) |
| --- | --- | --- |
| UGACAGCAAUAUUACGAAGC | -3.56 ± 0.37 | -3.61 ± 0.39 |
| UGACAGCAAUAUUACGAAUU | -2.9 ± 0.2 | -1.53 ± 0.21 |
| UGACAGCAAUAUUACGACUU | -0.452 ± 0.068 | 0.389 ± 0.091 |
| UGACAGCAAUAUUACGAGCG | -0.264 ± 0.067 | -0.0667 ± 0.079 |
| UGACAGCAAUAUUACGAGUU | -3.89 ± 0.2 | -2.86 ± 0.19 |
| UGACAGCAAUAUUACGAUAC | -3.36 ± 0.22 | -1.61 ± 0.19 |
| UGACAGCAAUAUUACGAUCG | 0.0362 ± 0.077 | 0.761 ± 0.1 |
| UGACAGCAAUAUUACGAUUA | -0.338 ± 0.059 | 0.419 ± 0.066 |
| UGACAGCAAUAUUACGCACU | 0.279 ± 0.051 | -0.101 ± 0.059 |
| UGACAGCAAUAUUACGCAUC | -4 ± 0.27 | -1.28 ± 0.2 |
| UGACAGCAAUAUUACGCCCC | -0.414 ± 0.17 | -0.391 ± 0.26 |
| UGACAGCAAUAUUACGCCGU | -2.54 ± 0.14 | -1.85 ± 0.15 |
| UGACAGCAAUAUUACGCGCU | -0.554 ± 0.086 | -0.657 ± 0.099 |
| UGACAGCAAUAUUACGCUCC | -1.28 ± 0.13 | -0.275 ± 0.14 |
| UGACAGCAAUAUUACGCUGA | -2.69 ± 0.17 | -2.08 ± 0.24 |
| UGACAGCAAUAUUACGGAAA | -2.03 ± 0.12 | -1.75 ± 0.14 |
| UGACAGCAAUAUUACGGAAU | -4.15 ± 0.28 | -1.55 ± 0.17 |
| UGACAGCAAUAUUACGGACU | -0.289 ± 0.063 | 0.203 ± 0.078 |
| UGACAGCAAUAUUACGGCCA | -0.00432 ± 0.11 | 0.373 ± 0.13 |
| UGACAGCAAUAUUACGGCCC | -0.701 ± 0.12 | -0.967 ± 0.18 |
| UGACAGCAAUAUUACGGCUU | -0.693 ± 0.075 | -0.053 ± 0.092 |
| UGACAGCAAUAUUACGGUCC | -0.746 ± 0.18 | -0.15 ± 0.23 |
| UGACAGCAAUAUUACGUACG | -0.78 ± 0.071 | -0.016 ± 0.083 |
| UGACAGCAAUAUUACGUAUU | -3.43 ± 0.15 | -1.78 ± 0.11 |
| UGACAGCAAUAUUACGUCGC | – | -1.64 ± 0.45 |

| Sequence | self-splicing fitness (ln) (30 °C) | self-splicing fitness (ln) (37 °C) |
| --- | --- | --- |
| UGACAGCAAUAUUACGUCUG | -0.69 ± 0.072 | -0.119 ± 0.093 |
| UGACAGCAAUAUUACGUGAC | -2.64 ± 0.12 | -1.37 ± 0.19 |
| UGACAGCAAUAUUACGUGGA | -3 ± 0.21 | -2.31 ± 0.2 |
| UGACAGCAAUAUUACGUUCU | -0.552 ± 0.071 | -0.321 ± 0.089 |
| UGAGAGCAAUAUUACGAACA | -0.706 ± 0.27 | -0.855 ± 0.2 |
| UGAGAGCAAUAUUACGAACU | -3.05 ± 0.43 | -2.02 ± 0.24 |
| UGAGAGCAAUAUUACGACUA | -1.47 ± 0.22 | -1.64 ± 0.21 |
| UGAGAGCAAUAUUACGCCUU | -3 ± 0.18 | -3.73 ± 0.34 |
| UGAGAGCAAUAUUACGCGAU | -3.4 ± 0.33 | -2.24 ± 0.39 |
| UGAGAGCAAUAUUACGCGUG | -2.82 ± 0.24 | 0.21 ± 0.21 |
| UGAGAGCAAUAUUACGCUUA | – | -2.05 ± 0.3 |
| UGAGAGCAAUAUUACGGCUC | -3.55 ± 0.36 | – |
| UGAGAGCAAUAUUACGGGUG | -3.65 ± 0.19 | -2.11 ± 0.19 |
| UGAGAGCAAUAUUACGGUCU | – | -2.37 ± 0.36 |
| UGAGAGCAAUAUUACGGUUC | -3.4 ± 0.32 | -1.5 ± 0.23 |
| UGAGAGCAAUAUUACGUGCG | -1.95 ± 0.13 | -1.42 ± 0.15 |
| UGAUAGCAAUAUUACGAAAA | -1.85 ± 0.31 | -2.48 ± 0.4 |
| UGAUAGCAAUAUUACGAAUU | -4.02 ± 0.46 | -2.64 ± 0.23 |
| UGAUAGCAAUAUUACGAUAU | -2.94 ± 0.2 | -2.12 ± 0.21 |
| UGAUAGCAAUAUUACGAUGC | -3.93 ± 0.26 | -1.95 ± 0.17 |
| UGAUAGCAAUAUUACGCAAC | -3.43 ± 0.44 | – |
| UGAUAGCAAUAUUACGCCUC | -3.09 ± 0.32 | -1.34 ± 0.39 |
| UGAUAGCAAUAUUACGCGAU | -2.6 ± 0.29 | -2.65 ± 0.26 |
| UGAUAGCAAUAUUACGCUCG | -0.235 ± 0.13 | 0.0592 ± 0.21 |
| UGAUAGCAAUAUUACGCUGC | -3.67 ± 0.31 | -2.61 ± 0.48 |

| Sequence | self-splicing fitness (ln) (30 °C) | self-splicing fitness (ln) (37 °C) |
| --- | --- | --- |
| UGAUAGCAAUAUUACGGAAA | -4.03 ± 0.43 | -2.2 ± 0.27 |
| UGAUAGCAAUAUUACGGACG | -0.432 ± 0.1 | -0.181 ± 0.15 |
| UGAUAGCAAUAUUACGGCCG | 0.151 ± 0.1 | 0.324 ± 0.15 |
| UGAUAGCAAUAUUACGGCUG | 0.473 ± 0.11 | -0.149 ± 0.14 |
| UGAUAGCAAUAUUACGGGUG | -1.56 ± 0.099 | -0.678 ± 0.11 |
| UGAUAGCAAUAUUACGUACG | -0.418 ± 0.074 | 0.13 ± 0.1 |
| UGAUAGCAAUAUUACGUAUA | -1.17 ± 0.18 | -1.53 ± 0.19 |
| UGAUAGCAAUAUUACGUGAC | -3.54 ± 0.29 | -1.82 ± 0.29 |
| UGAUAGCAAUAUUACGUGCU | -1.84 ± 0.094 | -1.59 ± 0.14 |
| UGAUAGCAAUAUUACGUUGG | -2.45 ± 0.12 | -1.63 ± 0.16 |
| UGCAAGCAAUAUUACGAACC | -1.15 ± 0.15 | -0.525 ± 0.17 |
| UGCAAGCAAUAUUACGACCU | -0.737 ± 0.07 | -0.219 ± 0.089 |
| UGCAAGCAAUAUUACGACGU | -1.76 ± 0.1 | -1.1 ± 0.13 |
| UGCAAGCAAUAUUACGAGAA | -2.52 ± 0.47 | -1.94 ± 0.27 |
| UGCAAGCAAUAUUACGAGAU | -3.16 ± 0.24 | -3.02 ± 0.35 |
| UGCAAGCAAUAUUACGAGCG | -2.37 ± 0.092 | -0.896 ± 0.1 |
| UGCAAGCAAUAUUACGAGCU | -0.536 ± 0.089 | -0.0945 ± 0.1 |
| UGCAAGCAAUAUUACGAGGC | -4.02 ± 0.27 | -2.13 ± 0.23 |
| UGCAAGCAAUAUUACGAUUA | -0.19 ± 0.077 | 0.163 ± 0.092 |
| UGCAAGCAAUAUUACGCCAA | -1.67 ± 0.34 | -0.657 ± 0.19 |
| UGCAAGCAAUAUUACGCCUU | -1 ± 0.16 | -0.449 ± 0.15 |
| UGCAAGCAAUAUUACGCGCU | -1.28 ± 0.12 | -0.818 ± 0.12 |
| UGCAAGCAAUAUUACGGCAG | -0.827 ± 0.078 | -0.0588 ± 0.12 |
| UGCAAGCAAUAUUACGGGAU | -3.04 ± 0.13 | -2.89 ± 0.15 |
| UGCAAGCAAUAUUACGGGGC | -3.59 ± 0.27 | -2.56 ± 0.24 |

| Sequence | self-splicing fitness (ln) (30 °C) | self-splicing fitness (ln) (37 °C) |
| --- | --- | --- |
| UGCAAGCAAUAUUACGGUCC | -1.81 ± 0.057 | -1.16 ± 0.084 |
| UGCAAGCAAUAUUACGGUGA | -0.55 ± 0.068 | 0.00833 ± 0.086 |
| UGCAAGCAAUAUUACGUAGG | -3.31 ± 0.21 | -0.277 ± 0.14 |
| UGCAAGCAAUAUUACGUCGA | -1.09 ± 0.082 | -0.989 ± 0.089 |
| UGCAAGCAAUAUUACGUGAG | -3.87 ± 0.21 | -2.72 ± 0.18 |
| UGCAAGCAAUAUUACGUUGU | -4.31 ± 0.24 | -2.78 ± 0.2 |
| UGCCAGCAAUAUUACGAAAC | – | -2.42 ± 0.23 |
| UGCCAGCAAUAUUACGAAGA | -2.87 ± 0.18 | -1.33 ± 0.14 |
| UGCCAGCAAUAUUACGACAG | -1.31 ± 0.1 | -0.406 ± 0.12 |
| UGCCAGCAAUAUUACGACGA | -1.01 ± 0.12 | -1.01 ± 0.12 |
| UGCCAGCAAUAUUACGAGUC | -3.49 ± 0.16 | -1.6 ± 0.16 |
| UGCCAGCAAUAUUACGAUAG | -2.17 ± 0.12 | -1.09 ± 0.12 |
| UGCCAGCAAUAUUACGAUGA | -1.99 ± 0.14 | -0.997 ± 0.12 |
| UGCCAGCAAUAUUACGAUUC | -2.68 ± 0.18 | -2.41 ± 0.3 |
| UGCCAGCAAUAUUACGCUCC | -2.88 ± 0.12 | -1.15 ± 0.14 |
| UGCCAGCAAUAUUACGGAAU | -2.74 ± 0.15 | -1.95 ± 0.11 |
| UGCCAGCAAUAUUACGGCAU | -2.48 ± 0.15 | -3.23 ± 0.26 |
| UGCCAGCAAUAUUACGGCCC | -0.651 ± 0.12 | -0.528 ± 0.17 |
| UGCCAGCAAUAUUACGGCGC | -3.8 ± 0.27 | -3.04 ± 0.23 |
| UGCCAGCAAUAUUACGGUCC | -0.84 ± 0.2 | 0.136 ± 0.2 |
| UGCCAGCAAUAUUACGUGCU | -3.14 ± 0.11 | -1.48 ± 0.1 |
| UGCCAGCAAUAUUACGUUUG | -2.35 ± 0.092 | -0.857 ± 0.12 |

Source: the supplement of paper PMC7877785
